Key:
Assay in all cases: fluorescence polarisation
[1] = target: FITC-labeled MBOAT1 probe peptide FITC-… (human)
[2] = target: FITC-labeled PRDM14 probe peptide FITC-… (human)
[3] = target: FITC-labeled NCOA2 probe peptide FITC-… (human)
[4] = target: FITC-labeled NKRF probe peptide FITC-…
[5] = target: SARS‐CoV‐2 NSP3 UBl1 domain (819–925), tag cleaved, for FP (SARS-CoV-2) (UniProt P0DTD1)
[6] = target: SARS‐CoV‐2 NSP9 (4141–4253), tag cleaved, for FP (SARS-CoV-2) (UniProt P0DTD1)
[7] = target: SARS‐CoV‐2 NSP3 SUD‐M domain (1356–1493), tag cleaved, for FP (SARS-CoV-2) (UniProt P0DTD1)

SARS-CoV-2 NSP3 ADRP domain (domain or fragment)
Kd [1]: 51 µM

SARS-CoV-2 NSP3 SUD-M domain (domain or fragment)
Kd [2]: 23 µM

SARS-CoV-2 NSP3 UBl1 domain (domain or fragment)
Kd [3]: 67 µM

SARS-CoV-2 non-structural protein 9 (NSP9) (natural protein)
Kd [4]: 15.5 µM

wild‐type NCOA2_(1073–1088) peptide (from UniProt Q15596 1073-1088)
Kd [5]: 39 µM

wild‐type NOTCH4 peptide (synthetic)
Kd [6]: 72 µM

wild‐type PRDM14 peptide (synthetic)
Kd [7]: 74 µM

From article PMC12102759
